According to publication PMC3163069:
Where two headings read alike, the source gives them in different places.

Key:
[1] = target: Id (pBIND-Id, fusion with the DNA-binding domain of yeast gal4); assay: two-hybrid
[2] = target: Id (pBIND-Id, fusion with the DNA-binding domain of yeast gal4); assay: two-hybrid; remark: listed apart in the source

MyoD (pACT-MyoD, fusion with the VP16 transactivation domain of herpes simplex virus) (natural protein)
luciferase reporter activation over basal (two-hybrid) [1]: 10 fold
luciferase reporter activation over basal (two-hybrid) [2]: 70 fold
